Test results from PMC7815789, “Degradation of complex arabinoxylans by human colonic Bacteroidetes” (Nature Communications, 2021).

Target: the molecule itself
Experiment: crystal structure; seleno-methionine-labeled BACINT_01033-CE1, 20 mg/ml in 50 mM Tris pH 7.5, 150 mM NaCl; sitting drop, room temperature; P3_(1)21 form from 0.1 M BIS-Tris pH 6.5, 20% PEG 1,500; dimer in the asymmetric unit

B1: BACINT_01033-CE1 (carbohydrate esterase family 1, ferulic acid esterase) (enzyme, Bacteroides intestinalis DSM 17393)
chain: QQQDFPAGTTPNEHNINGADYPRIGEDRRVHFRIHAPNAQKVEISFRGEMTKEADGYWSLVSKEPEVIGFHYYQVIIDGVSAADPNGKPFFGMGKWVSGIEIPEKGVDYYSIKNVPHGLISQSWYYSDIRKEWRRCIVYTPAEYDKNPTKKYPVLYLQHGMGENETSWANQGKMNFIMDNLIAEGKAKPMIVVMDNGNIEVFKTNSGETPEDARKRFGAEFPAILVNEIIPHIESNFRTLTDRDNRAMAGLSWGGLLTFNTTLNNLDKFAYIGGFSGAGSIDLKQLDTVYGGVFKNRKAFNDKVHVFFLGIGSEEHPERTKNLSDGLQAAGINTIYYESPGTAHEFLTWRRCLKEFAPLLFKTK
modifications: seleno-methionine-labeled
notes: BACINT_01033-CE1 of Bacteroides intestinalis DSM 17393; N-terminal Ig-like fold of ~100 residues followed by the esterase domain (residues 126-383); predicted signal peptide; Cloned NdeI/XhoI into pET-28a; also called Bi1033-CE1; Bi1033; source: E. coli BL21 (DE3), seleno-methionine-labeled, purified (HisTrap, Superdex 200)
- stoichiometry N: 2
